The results in this text go back to patent US20150166656A1.

Where no end group is shown, it is not given here. [ ]: non-standard residue; d: D form. pGlu = O=C1CC[C@@H](C(=O)O)N1

In experiment [1] the target is MAb 458-4. In words: MAb inhibition ELISA; free peptide inhibits 458-4 binding to the coated target conjugate.
Experiment [2] deals with MAb 458-2. In words: MAb inhibition ELISA; free peptide inhibits 458-2 binding to the coated target conjugate. A general note: In an ELISA, binding on a coated surface is turned into a signal by an enzyme label.
Experiment [3] concerns the target MAb 458-5. In words: MAb inhibition ELISA; free peptide inhibits 458-5 binding to the coated target conjugate.
For experiment [4], the target named is MAb 458-1. In words: MAb inhibition ELISA; free peptide inhibits 458-1 binding to the coated target conjugate.
The target of experiment [5] is MAb 458-3. In words: MAb inhibition ELISA; free peptide inhibits 458-3 binding to the coated target conjugate.
The target of experiment [6] is MAb 401-2. In words: MAb inhibition ELISA; free peptide inhibits 401-2 binding to the coated G34 N-terminal peptide-BSA.
Experiment [7] deals with MAb 458-3. In words: MAb inhibition ELISA; free peptide against 458-3 binding to the coated target conjugate.
The target of experiment [8] is MAb 400-4. In words: MAb inhibition ELISA; free peptide inhibits 400-4 binding to coated hG17(1-9)-“Ala”-BSA.
The target of experiment [9] is MAb 400-1. In words: MAb inhibition ELISA; free peptide inhibits 400-1 binding to coated hG17(1-9)-“Ala”-BSA.
The target of experiment [10] is MAb 400-3. In words: MAb inhibition ELISA; free peptide inhibits 400-3 binding to coated hG17(1-9)-“Ala”-BSA.
Experiment [11] deals with MAb 400-2. In words: MAb inhibition ELISA; free peptide inhibits 400-2 binding to coated hG17(1-9)-“Ala”-BSA.
In experiment [12] the target is MAb 445-2. In words: MAb inhibition ELISA; free peptide inhibits 445-2 binding to coated hG34(16-34)-Gly 35-BSA.
For experiment [13], the target named is MAb 445-1. In words: MAb inhibition ELISA; free peptide inhibits 445-1 binding to coated hG34(16-34)-Gly 35-BSA.
Experiment [14] has as its target MAb 458-1. In words: MAb inhibition ELISA; free peptide against 458-1 binding to the coated target conjugate.

Turning to [pGlu]LGPQGPPHLVADPSKKEGPWLEEEEEAYGWMDF-NH2 (ends and bridges not checked) [human gastrin-34 (G34)], the Inhibition (in general, the relative decrease from the control value, in per cent) at 10 nmol/ml (250 pmoles/well) in experiment [1] came to 86.7%; in experiment [2], 84.5%; in experiment [3], 91.5%; in [4], 93.5%; in [5], 90.7%. The concentration for half-maximal inhibition (IC50) (usually the concentration at which inhibition is half-maximal) in experiment [6] worked out at 0.7 µM.

In [7], EGPWLEEEE [hG17(9)] had an Inhibition at 10 nmol/ml (250 pmoles/well) of 1.2%.

As to DYMGWMDF-NH2 [CCK (26-33) unsulfated], the Inhibition at 10 nmol/ml (250 pmoles/well) in experiment [1] was 83.4%; in experiment [2], 84.8%; in [3] it was 92%; in [4], 93.8%; in experiment [5] it was 84.8%.

Take EGPWLEEEEEAYGWMDF (N-terminal pyroglutamic acid (pE); C-terminal Phe-NH2 (amide)) [human gastrin-17 (G17)]: the Inhibition at 10 nmol/ml (250 pmoles/well) in [1] came out at 88.4%; in experiment [2], 86%; in [3] it was 91.9%; in [4], 94.3%; in experiment [5] it was 92.4%. Moreover, the IC50 was determined as 0.62 µM in experiment [8], 2.03 µM in experiment [9], 1.08 µM in experiment [10] and 0.085 µM in experiment [11].

As to CPPPPSSYGWMDFG [hG17(12-17)-Gly18 peptide …], the IC50 stood at 13 µM in experiment [12] and 4 µM in experiment [13].

For the molecule [pGlu]GPWLEEEEEAYGWMDFG (ends and bridges not checked) [glycine-extended gastrin-17 (G17-Gly)], the IC50 in experiment [12] came out at 5 µM; in experiment [8], 0.699 µM; in experiment [9], 1.79 µM; in experiment [10], 1.39 µM; in experiment [11], 0.077 µM; in [13], 0.7 µM. Besides, in [14], the Inhibition at 10 nmol/ml (250 pmoles/well) stood at 2.1%.
